Values joined by “and” are separate entries in the source; they are usually repeats but may differ in a detail not shown here. Equal values may be shown once. Read-outs that look alike come from different tables or passages of the source. Bridge positions count the residues as written; N and C are the ends. Ends that are not written are not given here. * marks the point of attachment. Biotin = O=C1N[C@H]2[C@H](CS[C@H]2CCCCC(=O)*)N1
B1: ABCB5-Ab101 (antibody, human IgG1, kappa, V domains shown)
VH: QVQLVQSGAEVKKPGASVKVSCKASGYTFTSYYMHWVRQAPGQGLEWMGIINPSGGSTSYAQKFQGRVTMTRDTSTSTVYMELSSLRSEDTAVYYCARDQAVTGTAYYYYYGMDVWGQGTTVTVSS
VL: EIVLTQSPGTLSLSPGERATLSCRASQSVNSNYLAWYQQKPGQAPRLLIYGTSSRATGIPDSFSGSGSGTDFTLTISRLEPEDFAVYYCQQFGSSPLTFGGGTKVEIKR
notes: Fully human monoclonal IgG1 kappa
B2: ABCB5-Ab43 (antibody, V domains shown)
VH: QVQLVQSGAEVKKPGASVKVSCKASGYTFTSYYMHWVRQSPGQGLEWMGIINPSGGSTSYAQKFQGRVTMTRDTSTSTVYMELSSLRSEDTAVYYCARDQAVTGTAYYYYYGMDVWGQGTTVTVSS
VL: EIVLTQSPGTLSLSPGERATLSCRASQSVNSKYLAWYQQKPGQAPRLLIYGTSSRATGIPDSFSGSGSGTDFTLTISRLEPEDFAVYYCQQFGSSPLTFGGGTKVEIK
B3: ABCB5-Ab45 (antibody, V domains shown)
VH: QVQLVQSGAEVKKPGASVKVSCKASGYTFTNYYMHWVRQAPGQGPEWMGIINPSGGSTSYAQKFQGRVTMTRDTSTSTVYMELSSLRSEDTAVYYCARDLAVTGTAYYYYYGMDVWGQGTTVTVSS
VL: EFVLTQSPGTLSLSPGERATLSCRASQSVNSNYLAWYQQKPGQAPRLLIYGTSSRATGIPDSFSGSGSGTDFTLTISRLEPEDFAVYYCQQFGSSPLTFGGGTKVEIK
B4: ABCB5-Ab44 (antibody, V domains shown)
VH: QVQLVQSGAEVKKPGASVKVSCKASGYTFTSYYMHWVRQAPGQGLEWMGIINPSGGSTSYAQKFKGRVTMTRDTSTSTVYMELSSLRSEDTAVYYCARDQAVTGTAYYYYYGMDVWGQGTTVTVSS
VL: EIVLTQSPGTLSLSPGERATLSCRASQSVNSNYLAWYQQKPGQAPRLLIYGTSSRATGIPDSFSGSGSGTDFTLTISRLEPEDFAVYYCQQFGSSPLTFGGGTKVEIK
notes: also called A44; F01
B5: ABCB5-Ab42 (antibody, V domains shown)
VH: QVQLVQSGAEVKKPGASVKVSCKTSGYTFTSYYMHWVRQSPGQGLEWMGIINPSGGSTSYAQKFQGRVTMTRDTSTSTVYMELSSLRSEDTAVYYCARDQAVTGTAYYYYYGMDVWGQGTTVTVSS
VL: EIVLTQSPGTLSLSPGERATLSCRASLSVNSNYLAWYQQKPGQAPRLLIYGTSSRATGIPDSFSGSGSGTDFTLTISRLEPEDFAVYYCQQFGSSPLTFGGGTKVEIK
notes: detection was with an anti-human secondary antibody
B6: ABCB5-Ab100 (antibody, human IgG1, kappa, V domains shown)
VH: EVQLVESGGGLVQPGGSLRLSCAASGFTFSSYSMNWVRQAPGKGLEWVSYISSSSSTIYYADSVKGRFTISRDNAKNSLYLQMNSLRDEDTAVYYCASNYQYGDYGGYWGRGTLVTVSS
VL: AIQLTQSPSSLTGSVGDRVTITCQASHDISNFLNWYQQKPGQAPKLLIYDAYNLQTGVPSRFSGTGSGTHFTLTINSLQPEDVGTYFCQQYDYFLSITFGQGTRLEIKR

Tests used:
[1] = molecular target: T1, cyclic (biotinylated) ABCB5 peptide (human, disulfide 1-18); test: cyclic biotinylated peptide ELISA (200 nM peptides), curve fit
T1 construct: immobilised at 200 nM on streptavidin-precoated plates; also called cyclic ABCB5 peptide
T1 peptide: Biotin-CRFGAYLIQAGRMTPEGC

[2] = molecular target: T1, cyclic (biotinylated) ABCB5 peptide; test: cyclic biotinylated peptide ELISA (200 nM peptides), broad range of mAb concentrations, curve fit
[3] = molecular target: T1, cyclic (biotinylated) ABCB5 peptide; test: cyclic biotinylated peptide ELISA (200 nM peptides), broad range of mAb concentrations, curve fit, OD 450 nm
[4] = molecular target: T2, ABCB11 peptide segment corresponding to the ABCB5 linear epitope peptide (human, UniProt O95342 1001-1016, limits assumed); test: linear peptide ELISA, BSA-conjugated peptides (20 µM), OD 450 nm (mAb-Iso (InVivoPlus+))
T2 construct: domain: corresponding peptide segment (3rd extracellular loop); also called homologous control peptide
T2 peptide (looked up): RYGGYLISNEGLHFSY

[5] = molecular target: T3, ABCB5 linear epitope peptide (3rd extracellular loop) (human); test: as above
T3 construct: Synthetic linear peptide, used at 20 uM in the ELISA; 104; also called ABCB5 peptide; linear peptide
T3 peptide: RFGAYLIQAGRMTPEG

[6] = molecular target: T4, ABCB1 peptide segment corresponding to the ABCB5 linear epitope peptide (human, UniProt P08183 958-973, limits assumed); test: as above
T4 construct: domain: corresponding peptide segment (3rd extracellular loop); also called homologous control peptide
T4 peptide (looked up): RFGAYLVAHKLMSFED

[7] = molecular target: T5, 'scrambled' (neg. ctrl.) peptide (also: conjugated to BSA); test: as above
T5 construct: also called scrambled|BSA peptide
T5 peptide: GFEALGTAIRYPMGQR

[8] = molecular target: T6, cyclic 'scrambled' (neg. ctrl.) peptide (disulfide 1-18); test: cyclic biotinylated peptide ELISA (200 nM peptides), OD 450 nm (mAb-average Iso)
T6 construct: also called cycl. 'scrambled'
T6 peptide: Biotin-CGFEALGTAIRYPMGQRC

[9] = molecular target: T1, cyclic (biotinylated) ABCB5 peptide; test: cyclic biotinylated peptide ELISA (200 nM peptides), broad range of mAb concentrations, OD 450 nm (mAb-average Iso)
[10] = molecular target: T1, cyclic (biotinylated) ABCB5 peptide; test: cyclic biotinylated peptide ELISA (200 nM peptides), curve fit, OD 450 nm
[11] = molecular target: T2, ABCB11 peptide segment corresponding to …; test: linear peptide ELISA, BSA-conjugated peptides (20 µM), OD 450 nm (mAb-Iso (InVivoPlus+))
[12] = molecular target: T3, ABCB5 linear epitope peptide (3rd …); test: as above
[13] = molecular target: T4, ABCB1 peptide segment corresponding to …; test: as above
[14] = molecular target: T5, 'scrambled' (neg. ctrl.) peptide; test: as above
[15] = molecular target: T3, ABCB5 linear epitope peptide (3rd …); test: linear peptide ELISA, BSA-conjugated peptides (20 µM), OD 450 nm (mAb-Iso)
Source text: (§1) Specificity for ABCB5 of Ab100. ELISAs run against ABCB5 peptide used to make the antibody was examined. The linear peptide ELISA binding study was a comparative assessment of quantitative binding to ABCB5 linear epitope peptide (3rd extracellular loop) and corresponding peptide segments of homologous (ABCB 1, 4, 11) and orthologous (murine ABCB5) proteins—to assess specificity and/or cross-reactivity (see FIG. 2). […] A primate sequence was not tested as the epitope sequence is identical to the human epitope. A scrambled peptide was used as a negative control. All of the tested peptides are all linear peptides, synthetically created to resemble extracellular loop. The X-axis is the Ab concentration. The Y-axis is the optical density of ELISA (signal representing binding). A non-specific signal with isotype antibody has been subtracted, which is why a non-specific isotype antibody is not shown.

[16] = molecular target: T7, ABCB4 peptide segment corresponding to the ABCB5 linear epitope peptide (human, UniProt P21439 957-972, limits assumed); test: as above
T7 construct: domain: corresponding peptide segment (3rd extracellular loop); also called homologous control peptide
T7 peptide (looked up): RFGAYLIVNGHMRFRD
Source text: as §1

[17] = molecular target: T5, 'scrambled' (neg. ctrl.) peptide; test: as above
Source text: as §1

[18] = molecular target: T1, cyclic (biotinylated) ABCB5 peptide; test: cyclic biotinylated peptide ELISA (200 nM peptide on streptavidin plates), BSA control subtracted (FIG. 4B)
[19] = molecular target: T1, cyclic (biotinylated) ABCB5 peptide; test: cyclic biotinylated peptide ELISA (200 nM peptide on streptavidin plates), no Ab control subtracted (FIG. 4A)

Binder	Kd [1]	Kd [2]	Bmax [3]	binding result [4]	binding result [5]	binding result [6]	binding result [7]	binding result [8]	EC50 (read off the curve) [9]	Bmax [10]	binding result [11]	binding result [12]	binding result [13]	binding result [14]	binding result [15]	binding result [16]	binding result [17]	Kd [18]	Kd [19]
B1	0.0283 µg/mL and 0.19 nM	0.039 µg/mL and 0.261 nM	3.83	no binding (tested: 50 µg/ml)	binds	no binding (tested: 50 µg/ml)	no binding (tested: 50 µg/ml)	no binding (tested: 1 µg/ml)	~0.04 µg/mL	3.33									
B2	0.0204 µg/mL and 0.137 nM	0.0345 µg/mL and 0.231 nM	3.77					no binding (tested: 1 µg/ml)	~0.04 µg/mL	3.24	no binding (tested: 50 µg/ml)	binds	no binding (tested: 50 µg/ml)	no binding (tested: 50 µg/ml)					
B3	0.00456 µg/mL and 0.0306 nM	0.0205 µg/mL and 0.138 nM	3.71					no binding (tested: 1 µg/ml)	~0.02 µg/mL	3.2	no binding (tested: 50 µg/ml)	binds	no binding (tested: 50 µg/ml)	no binding (tested: 50 µg/ml)					
B4	0.00917 µg/mL and 0.0615 nM	0.0335 µg/mL and 0.225 nM	3.99					no binding (tested: 1 µg/ml)	~0.04 µg/mL	3.23	no binding (tested: 50 µg/ml)	binds	no binding (tested: 50 µg/ml)	no binding (tested: 50 µg/ml)					
B5	0.0222 µg/mL and 0.149 nM	0.0471 µg/mL and 0.316 nM	4.09					no binding (tested: 1 µg/ml)	~0.04 µg/mL	3.17	no binding (tested: 50 µg/ml)	binds	no binding (tested: 50 µg/ml)	no binding (tested: 50 µg/ml)					
B6															binds	no binding (tested: 50 µg/mL)	no binding (tested: 50 µg/mL)	6.16 µg/mL and 41.3 nM	4.93 µg/mL and 33.1 nM

From US20230203153A1 (CHILDREN S MEDICAL CENTER, published 2023)
